Reference: patent publication US20210388087A1 (Chugai, published 2021)
Changes are numbered by the printed parent chain.

B1: H183/L072 VL G91N (antibody, name in Kabat numbering, V domains shown)
VH: QVQLVESGGGLVQPGRSLRLSCAASGFTFSNAWMHWVRQAPGKGLEWVAQIKDKGNAYAAYYAPSVKGRFTISRDDSKNSIYLQMNSLKTEDTAVYYCHYVHYASASTVLPAFGVDAWGQGTTVTVSS
VL: DIVMTQSPLSLPVTPGEPASISCQASQELVHMNRNTYLHWYQQKPGQAPRLLIYKVSNRFPGVPDRFSGSGSGTDFTLKISRVEAEDVGVYYCAQNTSVPFTFGQGTKLEIK
notes: Dual-Ig
B2: H183/L072 VL K50Q (antibody, name in Kabat numbering, V domains shown)
VH: B1 VH
VL: B1 VL with K55Q, N96G
notes: Dual-Ig
B3: H183/L072 VL H27dT (antibody, name in Kabat numbering, V domains shown)
VH: B1 VH
VL: B1 VL with H31T, N96G
notes: Dual-Ig
B4: H183/L072 VL H27dD (antibody, name in Kabat numbering, V domains shown)
VH: B1 VH
VL: B1 VL with H31D, N96G
notes: Dual-Ig
B5: H183/L072 VL H27dK (antibody, name in Kabat numbering, V domains shown)
VH: B1 VH
VL: B1 VL with H31K, N96G
notes: Dual-Ig
B6: H183/L072 VL K50N (antibody, name in Kabat numbering, V domains shown)
VH: B1 VH
VL: B1 VL with K55N, N96G
notes: Dual-Ig
B7: H183/L072 VL H27dE (antibody, name in Kabat numbering, V domains shown)
VH: B1 VH
VL: B1 VL with H31E, N96G
notes: Dual-Ig
B8: H183/L072 VL K50L (antibody, name in Kabat numbering, V domains shown)
VH: B1 VH
VL: B1 VL with K55L, N96G
notes: Dual-Ig
B9: H183/L072 VL H27dN (antibody, name in Kabat numbering, V domains shown)
VH: B1 VH
VL: B1 VL with H31N, N96G
notes: Dual-Ig
B10: H183/L072 VL H27dR (antibody, name in Kabat numbering, V domains shown)
VH: B1 VH
VL: B1 VL with H31R, N96G
notes: Dual-Ig
B11: H183/L072 VL K50I (antibody, name in Kabat numbering, V domains shown)
VH: B1 VH
VL: B1 VL with K55I, N96G
notes: Dual-Ig
B12: H183/L072 VL G91R (antibody, name in Kabat numbering, V domains shown)
VH: B1 VH
VL: B1 VL with N96R
notes: Dual-Ig
B13: H183/L072 VL H34V (antibody, name in Kabat numbering, V domains shown)
VH: B1 VH
VL: B1 VL with H39V, N96G
notes: Dual-Ig
B14: H183/L072 VL K50E (antibody, name in Kabat numbering, V domains shown)
VH: B1 VH
VL: B1 VL with K55E, N96G
notes: Dual-Ig
B15: H183/L072 VL H34P (antibody, name in Kabat numbering, V domains shown)
VH: B1 VH
VL: B1 VL with H39P, N96G
notes: Dual-Ig
B16: H183/L072 VL G91P (antibody, name in Kabat numbering, V domains shown)
VH: B1 VH
VL: B1 VL with N96P
notes: Dual-Ig
B17: H183/L072 VL H27dY (antibody, name in Kabat numbering, V domains shown)
VH: B1 VH
VL: B1 VL with H31Y, N96G
notes: Dual-Ig
B18: H183/L072 VL H27dM (antibody, name in Kabat numbering, V domains shown)
VH: B1 VH
VL: B1 VL with H31M, N96G
notes: Dual-Ig
B19: H183/L072 VL K50M (antibody, name in Kabat numbering, V domains shown)
VH: B1 VH
VL: B1 VL with K55M, N96G
notes: Dual-Ig
B20: H183/L072 VL G91T (antibody, name in Kabat numbering, V domains shown)
VH: B1 VH
VL: B1 VL with N96T
notes: Dual-Ig
B21: H183/L072 VL G91V (antibody, name in Kabat numbering, V domains shown)
VH: B1 VH
VL: B1 VL with N96V
notes: Dual-Ig
B22: H183/L072 VL H27dW (antibody, name in Kabat numbering, V domains shown)
VH: B1 VH
VL: B1 VL with H31W, N96G
notes: Dual-Ig
B23: H183/L072 VL K50P (antibody, name in Kabat numbering, V domains shown)
VH: B1 VH
VL: B1 VL with K55P, N96G
notes: Dual-Ig
B24: H183/L072 VL H27dA (antibody, name in Kabat numbering, V domains shown)
VH: B1 VH
VL: B1 VL with H31A, N96G
notes: Dual-Ig
B25: H183/L072 VL K50R (antibody, name in Kabat numbering, V domains shown)
VH: B1 VH
VL: B1 VL with K55R, N96G
notes: Dual-Ig
B26: H183/L072 VL H27dQ (antibody, name in Kabat numbering, V domains shown)
VH: B1 VH
VL: B1 VL with H31Q, N96G
notes: Dual-Ig
B27: H183/L072 VL H27dF (antibody, name in Kabat numbering, V domains shown)
VH: B1 VH
VL: B1 VL with H31F, N96G
notes: Dual-Ig
B28: H183/L072 VL H27dP (antibody, name in Kabat numbering, V domains shown)
VH: B1 VH
VL: B1 VL with H31P, N96G
notes: Dual-Ig
B29: H183/L072 VL H27dG (antibody, name in Kabat numbering, V domains shown)
VH: B1 VH
VL: B1 VL with H31G, N96G
notes: Dual-Ig
B30: H183/L072 VL H27dS (antibody, name in Kabat numbering, V domains shown)
VH: B1 VH
VL: B1 VL with H31S, N96G
notes: Dual-Ig
B31: H183/L072 VL K50H (antibody, name in Kabat numbering, V domains shown)
VH: B1 VH
VL: B1 VL with K55H, N96G
notes: Dual-Ig
B32: H183/L072 VL G91W (antibody, name in Kabat numbering, V domains shown)
VH: B1 VH
VL: B1 VL with N96W
notes: Dual-Ig
B33: H183/L072 VL H34L (antibody, name in Kabat numbering, V domains shown)
VH: B1 VH
VL: B1 VL with H39L, N96G
notes: Dual-Ig
B34: H183/L072 VL H27dL (antibody, name in Kabat numbering, V domains shown)
VH: B1 VH
VL: B1 VL with H31L, N96G
notes: Dual-Ig
B35: H183/L072 VL H34I (antibody, name in Kabat numbering, V domains shown)
VH: B1 VH
VL: B1 VL with H39I, N96G
notes: Dual-Ig
B36: H183/L072 VL K50F (antibody, name in Kabat numbering, V domains shown)
VH: B1 VH
VL: B1 VL with K55F, N96G
notes: Dual-Ig
B37: H183/L072 VL K50A (antibody, name in Kabat numbering, V domains shown)
VH: B1 VH
VL: B1 VL with K55A, N96G
notes: Dual-Ig
B38: H183/L072 VL K50D (antibody, name in Kabat numbering, V domains shown)
VH: B1 VH
VL: B1 VL with K55D, N96G
notes: Dual-Ig
B39: H183/L072 VL G91Q (antibody, name in Kabat numbering, V domains shown)
VH: B1 VH
VL: B1 VL with N96Q
notes: Dual-Ig
B40: H183/L072 VL G91S (antibody, name in Kabat numbering, V domains shown)
VH: B1 VH
VL: B1 VL with N96S
notes: Dual-Ig
B41: H183/L072 VL H27dV (antibody, name in Kabat numbering, V domains shown)
VH: B1 VH
VL: B1 VL with H31V, N96G
notes: Dual-Ig
B42: H183/L072 VL H27dI (antibody, name in Kabat numbering, V domains shown)
VH: B1 VH
VL: B1 VL with H31I, N96G
notes: Dual-Ig
B43: H183/L072 VL K50G (antibody, name in Kabat numbering, V domains shown)
VH: B1 VH
VL: B1 VL with K55G, N96G
notes: Dual-Ig
B44: H183/L072 VL H34M (antibody, name in Kabat numbering, V domains shown)
VH: B1 VH
VL: B1 VL with H39M, N96G
notes: Dual-Ig

Target: T1, Human CD137 ECD (human)
T1 construct: entry includes C-terminal His-tag and biotin acceptor peptide; also called human CD137 extracellular domain; 4-1BB
Test: Biacore SPR, vs parent H183/L072

T1 sequence (chain, as listed by the source limits assumed): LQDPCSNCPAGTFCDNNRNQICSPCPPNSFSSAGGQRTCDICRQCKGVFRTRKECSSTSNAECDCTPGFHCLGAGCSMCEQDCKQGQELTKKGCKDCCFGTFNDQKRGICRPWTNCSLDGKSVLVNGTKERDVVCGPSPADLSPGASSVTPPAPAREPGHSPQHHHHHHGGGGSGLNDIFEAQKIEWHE

Binder	fold change of affinity [fold]
B1	0
B2	0.2
B3	0.6
B4	0.3
B5	0.6
B6	0.4
B7	0.6
B8	1
B9	0.5
B10	0.6
B11	2.5
B12	0
B13	0
B14	0
B15	0
B16	0
B17	0.5
B18	0.6
B19	2.9
B20	0
B21	0
B22	0.5

Binder	fold change of affinity [fold]
B23	0
B24	0.7
B25	1.7
B26	0.6
B27	0.4
B28	0.8
B29	0.6
B30	0.6
B31	0
B32	0
B33	0.1
B34	0.6
B35	0
B36	0.1
B37	0.1
B38	0
B39	0
B40	0
B41	0.7
B42	0.8
B43	0
B44	0
